{
  "source": "IntAct's records for PubMed 29892012",
  "parents": {"B1": {"name": "Coiled-coil alpha-helical rod protein 1 (Homo sapiens), Q8TD31 (parent)", "chain": "MFPPSGSTGLIPPSHFQARPLSTLPRMAPTWLSDIPLVQPPGHQDVSERRLDTQRPQVTMWERDVSSDRQEPGRRGRSWGLEGSQALSQQAEVIVRQLQELRRLEEEVRLLRETSLQQKMRLEAQAMELEALARAEKAGRAEAEGLRAALAGAEVVRKNLEEGSQRELEEVQRLHQEQLSSLTQAHEEALSSLTSKAEGLEKSLSSLETRRAGEAKELAEAQREAELLRKQLSKTQEDLEAQVTLVENLRKYVGEQVPSEVHSQTWELERQKLLETMQHLQEDRDSLHATAELLQVRVQSLTHILALQEEELTRKVQPSDSLEPEFTRKCQSLLNRWREKVFALMVQLKAQELEHSDSVKQLKGQVASLQEKVTSQSQEQAILQRSLQDKAAEVEVERMGAKGLQLELSRAQEARRRWQQQTASAEEQLRLVVNAVSSSQIWLETTMAKVEGAAAQLPSLNNRLSYAVRKVHTIRGLIARKLALAQLRQESCPLPPPVTDVSLELQQLREERNRLDAELQLSARLIQQEVGRAREQGEAERQQLSKVAQQLEQELQQTQESLASLGLQLEVARQGQQESTEEAASLRQELTQQQELYGQALQEKVAEVETRLREQLSDTERRLNEARREHAKAVVSLRQIQRRAAQEKERSQELRRLQEEARKEEGQRLARRLQELERDKNLMLATLQQEGLLSRYKQQRLLTVLPSLLDKKKSVVSSPRPPECSASAPVAAAVPTRESIKGSLSVLLDDLQDLSEAISKEEAVCQGDNLDRCSSSNPQMSS"}, "B2": {"name": "Vasculin (Homo sapiens), Q86WP2 (parent)", "chain": "MAQHDFAPAWLNFPTPPSSTKSSLNFEKHSENFAWTENRYDVNRRRHNSSDGFDSAIGRPNGGNFGRKEKNGWRTHGRNGTENINHRGGYHGGSSRSRSSIFHAGKSQGLHENNIPDNETGRKEDKRERKQFEAEDFPSLNPEYEREPNHNKSLAAGVWEYPPNPKSRAPRMLVIKKGNTKDLQLSGFPVVGNLPSQPVKNGTGPSVYKGLVPKPAAPPTKPTQWKSQTKENKVGTSFPHESTFGVGNFNAFKSTAKNFSPSTNSVKECNRSNSSSPVDKLNQQPRLTKLTRMRTDKKSEFLKALKRDRVEEEHEDESRAGSEKDDDSFNLHNSNSTHQERDINRNFDENEIPQENGNASVISQQIIRSSTFPQTDVLSSSLEAEHRLLKEMGWQEDSENDETCAPLTEDEMREFQVISEQLQKNGLRKNGILKNGLICDFKFGPWKNSTFKPTTENDDTETSSSDTSDDDDV", "partner": "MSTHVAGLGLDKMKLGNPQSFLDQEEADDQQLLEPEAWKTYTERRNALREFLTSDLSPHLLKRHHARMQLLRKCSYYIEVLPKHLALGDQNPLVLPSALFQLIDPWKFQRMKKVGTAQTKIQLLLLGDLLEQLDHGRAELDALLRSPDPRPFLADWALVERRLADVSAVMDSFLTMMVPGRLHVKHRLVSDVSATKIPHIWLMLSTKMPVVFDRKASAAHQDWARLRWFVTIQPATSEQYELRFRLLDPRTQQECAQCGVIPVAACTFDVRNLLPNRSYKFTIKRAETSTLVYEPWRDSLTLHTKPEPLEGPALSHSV"}, "B3": {"name": "E3 ubiquitin-protein ligase LNX (Homo sapiens), Q8TBB1 (parent)", "chain": "MNQPESANDPEPLCAVCGQAHSLEENHFYSYPEEVDDDLICHICLQALLDPLDTPCGHTYCTLCLTNFLVEKDFCPMDRKPLVLQHCKKSSILVNKLLNKLLVTCPFREHCTQVLQRCDLEHHFQTSCKGASHYGLTKDRKRRSQDGCPDGCASLTATAPSPEVSAAATISLMTDEPGLDNPAYVSSAEDGQPAISPVDSGRSNRTRARPFERSTIRSRSFKKINRALSVLRRTKSGSAVANHADQGRENSENTTAPEVFPRLYHLIPDGEITSIKINRVDPSESLSIRLVGGSETPLVHIIIQHIYRDGVIARDGRLLPGDIILKVNGMDISNVPHNYAVRLLRQPCQVLWLTVMREQKFRSRNNGQAPDAYRPRDDSFHVILNKSSPEEQLGIKLVRKVDEPGVFIFNVLDGGVAYRHGQLEENDRVLAINGHDLRYGSPESAAHLIQASERRVHLVVSRQVRQRSPDIFQEAGWNSNGSWSPGPGERSNTPKPLHPTITCHEKVVNIQKDPGESLGMTVAGGASHREWDLPIYVISVEPGGVISRDGRIKTGDILLNVDGVELTEVSRSEAVALLKRTSSSIVLKALEVKEYEPQEDCSSPAALDSNHNMAPPSDWSPSWVMWLELPRCLYNCKDIVLRRNTAGSLGFCIVGGYEEYNGNKPFFIKSIVEGTPAYNDGRIRCGDILLAVNGRSTSGMIHACLARLLKELKGRITLTIVSWPGTFL", "partner": "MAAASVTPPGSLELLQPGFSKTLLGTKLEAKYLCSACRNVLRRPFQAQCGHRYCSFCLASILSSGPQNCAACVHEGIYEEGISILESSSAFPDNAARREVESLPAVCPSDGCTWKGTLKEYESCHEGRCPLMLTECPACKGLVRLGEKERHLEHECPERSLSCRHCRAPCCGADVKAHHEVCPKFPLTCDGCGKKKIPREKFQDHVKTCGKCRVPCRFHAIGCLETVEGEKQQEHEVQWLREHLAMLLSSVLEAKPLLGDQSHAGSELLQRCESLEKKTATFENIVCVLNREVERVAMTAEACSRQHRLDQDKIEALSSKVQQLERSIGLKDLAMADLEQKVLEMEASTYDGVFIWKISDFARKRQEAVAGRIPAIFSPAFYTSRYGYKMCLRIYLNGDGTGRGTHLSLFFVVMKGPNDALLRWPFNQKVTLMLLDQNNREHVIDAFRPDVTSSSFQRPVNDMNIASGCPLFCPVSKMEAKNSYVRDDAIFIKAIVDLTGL"}},
  "data": [
    {"variants_of": "B1", "conditions": "with nutm1_human NUTM1, Q86Y26", "values": [
      {"variant": "W337R", "effect of a mutation on the interaction": "disrupting interaction strength"}
    ]},
    {"variants_of": "B1", "conditions": "with tekt1_human TEKT1, Q969V4", "values": [
      {"variant": "W337R", "effect of a mutation on the interaction": "disrupting interaction strength"}
    ]},
    {"variants_of": "B1", "conditions": "with amol2_human AMOTL2, Q9Y2J4", "values": [
      {"variant": "W337R", "effect of a mutation on the interaction": "disrupting interaction strength"}
    ]},
    {"variants_of": "B1", "conditions": "with k1h1_human KRT31, Q15323", "values": [
      {"variant": "W337R", "effect of a mutation on the interaction": "with no effect"}
    ]},
    {"variants_of": "B1", "conditions": "with abi2_human ABI2, Q9NYB9", "values": [
      {"variant": "W337R", "effect of a mutation on the interaction": "disrupting interaction strength"}
    ]},
    {"variants_of": "B1", "conditions": "with txlnb_human TXLNB", "values": [
      {"variant": "W337R", "effect of a mutation on the interaction": "disrupting interaction strength"}
    ]},
    {"variants_of": "B1", "conditions": "with ndc80_human NDC80, O14777", "values": [
      {"variant": "W337R", "effect of a mutation on the interaction": "disrupting interaction strength"}
    ]},
    {"variants_of": "B1", "conditions": "with tpm3_human TPM3, P06753", "values": [
      {"variant": "W337R", "effect of a mutation on the interaction": "disrupting interaction strength"}
    ]},
    {"variants_of": "B1", "conditions": "with KRT15, P19012", "values": [
      {"variant": "W337R", "effect of a mutation on the interaction": "with no effect"}
    ]},
    {"variants_of": "B1", "conditions": "with atg5_human ATG5, Q9H1Y0", "values": [
      {"variant": "W337R", "effect of a mutation on the interaction": "disrupting interaction strength"}
    ]},
    {"variants_of": "B1", "conditions": "with cc136_human CCDC136, Q96JN2", "values": [
      {"variant": "W337R", "effect of a mutation on the interaction": "with no effect"}
    ]},
    {"variants_of": "B1", "conditions": "with nup62_human NUP62, P37198", "values": [
      {"variant": "W337R", "effect of a mutation on the interaction": "with no effect"}
    ]},
    {"variants_of": "B1", "conditions": "with tsg10_human TSGA10, Q9BZW7", "values": [
      {"variant": "W337R", "effect of a mutation on the interaction": "disrupting interaction strength"}
    ]},
    {"variants_of": "B1", "conditions": "with anchr_human ZFYVE19, Q96K21", "values": [
      {"variant": "W337R", "effect of a mutation on the interaction": "disrupting interaction strength"}
    ]},
    {"variants_of": "B1", "conditions": "with sat1_human SAT1, P21673", "values": [
      {"variant": "W337R", "effect of a mutation on the interaction": "disrupting interaction strength"}
    ]},
    {"variants_of": "B1", "conditions": "with ndk7_human NME7, Q9Y5B8", "values": [
      {"variant": "W337R", "effect of a mutation on the interaction": "with no effect"}
    ]},
    {"variants_of": "B1", "conditions": "with txlna_human TXLNA", "values": [
      {"variant": "W337R", "effect of a mutation on the interaction": "disrupting interaction strength"}
    ]},
    {"variants_of": "B2", "conditions": "with fnd11_human FNDC11, Q9BVV2", "values": [
      {"variant": "R292Q", "effect of a mutation on the interaction": "with no effect"}
    ]},
    {"variants_of": "B2", "conditions": "with fnd11_human FNDC11, Q9BVV2", "remark": "another data set of the same source", "values": [
      {"variant": "R129C", "effect of a mutation on the interaction": "with no effect"}
    ]},
    {"variants_of": "B3", "conditions": "with traf2_human TRAF2, Q12933", "values": [
      {"variant": "E295K", "effect of a mutation on the interaction": "disrupting interaction strength"}
    ]}
  ]
}
